Patent publication US20180016327A1 (Chugai, published 2018)
Changes are numbered by the printed parent chain.

B1: CFP0017 17L 93R (antibody, V domains shown)
VH: QVQLVQSGAEVKKPGSSVKVSCKASGGTFSSYAISWVRQAPGQGLEWMGGIIPIFGTANYAQKFQGRVTITADESTSTAYMELSSLRSEDTAVYYCARGGWWGGALDYWGQGTLVTVSS
VL: DIQMTQSPSSLSASVGDRVTITCRASQSIEDDLAWYQQKPGKAPKLLIYHASSLQSGVPSRFSGSGSGTDFTLTISSLQPEDFATYYCQQSDRYPLTFGQGTKVEIK
B2: CFP0017 17L 93G (antibody, V domains shown)
VH: B1 VH
VL: B1 VL with R93G
B3: CFP0017 17L 31H (antibody, V domains shown)
VH: B1 VH
VL: B1 VL with D31H, R93S
B4: CFP0017 17L 93D (antibody, V domains shown)
VH: B1 VH
VL: B1 VL with R93D
B5: CFP0017 17L 94S (antibody, V domains shown)
VH: B1 VH
VL: B1 VL with R93S, Y94S
B6: CFP0017 17L 93N (antibody, V domains shown)
VH: B1 VH
VL: B1 VL with R93N
B7: CFP0017 17L 53H (antibody, V domains shown)
VH: B1 VH
VL: B1 VL with S53H, R93S
B8: CFP0017 17L 96Y (antibody, V domains shown)
VH: B1 VH
VL: B1 VL with R93S, L96Y
B9: CFP0017 17L 53T (antibody, V domains shown)
VH: B1 VH
VL: B1 VL with S53T, R93S
B10: CFP0017 17L 94T (antibody, V domains shown)
VH: B1 VH
VL: B1 VL with R93S, Y94T
B11: CFP0017 17L 53N (antibody, V domains shown)
VH: B1 VH
VL: B1 VL with S53N, R93S
B12: CFP0019 (antibody, V domains shown)
VH: QVQLQESGPGLVKPSETLSLTCAVSGYSISSGYYWGWIRQPPGKGLEWIGSIYHSGSTYYNPSLKSRVTISVDTSKNQFSLKLSSVTAADTAVYYCARYYVWLGGPTYMDYWGQGTLVTVSS
VL: B1 VL with S53T, R93G
notes: IgG format
B13: CFP0017 17L 34N (antibody, V domains shown)
VH: B1 VH
VL: B1 VL with A34N, R93S
B14: CFP0017 17L 31A (antibody, V domains shown)
VH: B1 VH
VL: B1 VL with D31A, R93S
B15: CFP0021 21L 96P (antibody, V domains shown)
VH: QVQLVESGGGLVQPGGSLRLSCAASGFTFSDHYMDWVRQAPGKGLEWVGRTRNKANSYTTEYAASVKGRFTISRDDSKNSLYLQMNSLKTEDTAVYYCARTGMMYWGIFDVWGQGTLVTVSS
VL: B1 VL with S53T, S91H, R93S, L96P
B16: CFP0021 21L 94S (antibody, V domains shown)
VH: B15 VH
VL: B1 VL with S53T, S91H, R93S, Y94S
B17: CFP0021 21L 94F (antibody, V domains shown)
VH: B15 VH
VL: B1 VL with S53T, S91H, R93S, Y94F
B18: CFP0021 21L 93N (antibody, V domains shown)
VH: B15 VH
VL: B1 VL with S53T, S91H, R93N
B19: CFP0021 21L 96Y (antibody, V domains shown)
VH: B15 VH
VL: B1 VL with S53T, S91H, R93S, L96Y
B20: CFP0021 21L 93R (antibody, V domains shown)
VH: B15 VH
VL: B1 VL with S53T, S91H
B21: CFP0021 21L 96F (antibody, V domains shown)
VH: B15 VH
VL: B1 VL with S53T, S91H, R93S, L96F
B22: CFP0021 21L 96W (antibody, V domains shown)
VH: B15 VH
VL: B1 VL with S53T, S91H, R93S, L96W
B23: CFP0021 21L 96H (antibody, V domains shown)
VH: B15 VH
VL: B1 VL with S53T, S91H, R93S, L96H
B24: CFP0021 21L 94W (antibody, V domains shown)
VH: B15 VH
VL: B1 VL with S53T, S91H, R93S, Y94W
B25: CFP0021 21L 94T (antibody, V domains shown)
VH: B15 VH
VL: B1 VL with S53T, S91H, R93S, Y94T
B26: CFP0021 21L 94H (antibody, V domains shown)
VH: B15 VH
VL: B1 VL with S53T, S91H, R93S, Y94H
B27: CFP0021 21L 96I (antibody, V domains shown)
VH: B15 VH
VL: B1 VL with S53T, S91H, R93S, L96I
B28: antibody comprising heavy chain of clone 18 and light chain of 20L065 (antibody, V domains shown)
VH: B1 VH with G99Q, G100L, W101Y, W102G, G103Y, G104Y, A105E, Y108I
VL: B1 VL with E30H, H50E, S53N, S91Y, D92S, R93S, L96H
notes: also called clone 18 with common light chain

molecular target: T1, human C5 (human, UniProt P01031 19-673; P01031 678-1676, Beta and alpha chains are disulfide-linked and the protein is glycosylated.); assay: Biacore, captured antibody, pH 7.4, 37 C;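 note: biacore binding response of anti-C5 antibody light chain variants captured on chip with human C5 injected, ACES running buffer containing 1.2 mM CaCl₂, parent light chain antibody set to 100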
T1 construct: Either in-house recombinant C5 or plasma derived C5 (CALBIOCHEM) was used; also called recombinant human C5; plasma derived human C5
Method: The light chain variants were tested for the binding affinity to C5 at pH 7.4 and at 37 degrees C. using Biacore T200 instrument (GE Healthcare) or Biacore 4000 instrument (GE Healthcare). […] Anti-C5 antibodies were captured on an immobilized molecule, and then human C5 was injected. The running buffer used was pH 7.4 ACES Buffer containing 1.2 mM Ca (20 mM ACES, 150 mM NaCl, 1.2 mM CaCl₂, 0.05% Tween 20). A value, % binding, was determined by normalizing binding response with that of antibody comprising parent light chain as 100.

Binder | % binding (parent = 100)
B1 | 84.9%
B2 | 51%
B3 | 3.4%
B4 | 22.9%
B5 | -8.4%
B6 | 63%
B7 | 69.6%
B8 | -11.1%
B9 | 109%
B10 | 4.3%
B11 | 52.9%
B12 | 100%
B13 | -9.4%
B14 | 0.6%
B15 | 4.3%
B16 | 0.3%
B17 | 0.9%
B18 | 28.5%
B19 | 1.4%
B20 | 5.2%
B21 | 39.9%
B22 | 0.8%
B23 | -0.7%
B24 | 1.3%
B25 | 1.3%
B26 | 2.6%
B27 | 19.7%

molecular target: T1, human C5; assay: Biacore, 37 degrees C; antibody captured, human C5 injected (concentration not given); association pH 7.4, dissociation pH 7.4 (circles) or pH 5.8 (triangles)

Binder | binding result
B28 | binds
